Measured values from doi:10.1101/2022.05.24.493195 (bioRxiv, 2022).

Biological target: T161 phosphorylated CDK1 (full-length human CDK1) (human, UniProt P06493 1-297, phosphothreonine at T161)
Test: SEC

B1: Human cyclin B1, residues 165-433 carrying the C167S/C238S/C350S mutations (domain or fragment)
chain: NLSSEYVKDIYAYLRQLEEEQAVRPKYLLGREVTGNMRAILIDWLVQVQMKFRLLQETMYMTVSIIDRFMQNNSVPKKMLQLVGVTAMFIASKYEEMYPPEIGDFAFVTDNTYTKHQIRQMEMKILRALNFGLGRPLPLHFLRRASKIGEVDVEQHTLAKYLMELTMLDYDMVHFPPSQIAAGAFSLALKILDNGEWTPTLQHYLSYTEESLLPVMQHLAKNVVMVNQGLTKHMTVKNKYATSKHAKISTLPQLNSALVQDLAKAVAKV
binding result: binds
